The target of the test is T1, Kir2.1-mediated IK1 current (Rattus norvegicus, UniProt Q64273).
T1 construct: endogenous in cells; host or cells: rat ventricular cardiomyocytes (RVCMs)
T1 sequence (Q64273 1-427): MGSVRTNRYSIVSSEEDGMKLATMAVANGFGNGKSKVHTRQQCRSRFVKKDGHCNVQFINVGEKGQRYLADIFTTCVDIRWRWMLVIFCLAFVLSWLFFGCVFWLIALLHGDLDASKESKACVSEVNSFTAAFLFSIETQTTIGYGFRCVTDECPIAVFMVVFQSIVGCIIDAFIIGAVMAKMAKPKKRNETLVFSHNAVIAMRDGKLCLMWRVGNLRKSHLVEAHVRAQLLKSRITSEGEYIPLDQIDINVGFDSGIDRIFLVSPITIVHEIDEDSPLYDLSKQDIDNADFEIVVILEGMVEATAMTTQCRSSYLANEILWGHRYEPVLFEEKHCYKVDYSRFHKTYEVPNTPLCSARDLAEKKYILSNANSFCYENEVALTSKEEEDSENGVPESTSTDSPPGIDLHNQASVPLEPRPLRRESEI
The experiment in a line: Whole-cell patch-clamp of IK1 in rat ventricular cardiomyocytes under acute hypoxia. The test is classed as cell-based. As to conditions: for effect on hypoxic inhibition of IK1: ambient O2 to 2% O2, agent in pipette (SENP1 2 μM, SUMO1 1 μM, diC8-PIP2) or pretreatment (TAK981). Here is the method:
IK1 in rat ventricular cardiomyocytes studied by whole-cell patch-clamp. Hypoxia was a drop in O2 from ambient levels to 2%, measured at the cell. The time-course of hypoxic-inhibition was studied by recording the magnitude of IK1 every second. Cells were studied with the following pipette solutions: control, SUMO1 (1 μM) or SENP1 (2 μM). IK1 was blocked by the addition of 3 mM Ba^2+. […] Left, representative current sweeps; right, a representative time course showing the kinetics of hypoxic inhibition in cardiomyocytes studied with control pipette solution. The inhibition is precluded by including SENP1 (2 μM, magenta) in the recording pipette. The reverse ramp recording protocol is inset. […] SENP1 augments IK1 and protects the current from hypoxia. Data are from 8-10 RVCMs per group, **** P<0.0001, paired, two-tailed Student's […]. […] Representative data are shown with DAPI labeled nuclei and PLA interactions. Summary data are obtained from multiple experiments each with multiple fields of view containing 20-30 nuclei. The scale bar is 10 μm.
To knockdown Kir2.1 expression, RVCMs were transduced with lentiviral particles carrying cGFP and shRNA targeting KCNJ2-mRNA for the channel. Kir2.1 knockdown cells (Kir2.1kd-CMs) were identified by expression of cGFP. Cells were studied with control pipette solution, or with pipette solutions containing purified SUMO1 (1 μM) or SENP1 (2 μM). Where indicated, the control pipette solution contained diC8 PIP2. Paired patch-clamp data were analyzed by Students t-test; ***, P<0.01. […] Kir2.1kd-CMs are identified by expression of GFP (inset, scale bar=10 μm). […] The arrow indicates the change in current-magnitude between exposure to ambient O2 and 2% O2 in the same cell. Right, Concentration-response curve showing that including diC8-PIP2 in the pipette opposes hypoxic-inhibition of IK1 in control RVCMs and RVCMs expressing the scrambled shRNA. The hypoxic-response is diminished in Kir2.1kd-CMs. Data are mean±s.d. for 7-8 cells per condition. […] Current inhibition is diminished when SENP1 is included in the recording pipette and is not observed when SUMO-insensitive Kir2.1-K49Q channels are studied. Data are mean±s.d. for 6 cells per condition.
Hypoxic-inhibition of Kir2.1 in cardiomyocytes via SUMOylation. We studied the effects of acute hypoxia on IK1 in rat ventricular cardiomyocytes (RVCMs) by whole cell patch-clamp recording. […] Both the hypoxia-sensitive and insensitive components of the current were blocked by Ba^2+ (3 mM), consistent with the known role of Kir2 channels in mediating IK1 (FIG. 1a). To determine if SUMOylation mediates the hypoxic inhibition of IK1 we introduced purified SENP1 (2 μM) to the cytosol via the recording pipette. […] Both the SUMO1 and hypoxia-mediated inhibition of IK1 remained stable throughout the remainder of the experiment (up to 10 mins). […] Next, we visualized and quantified the interactions between native Kir2.1 and SUMO1 in RVCMs using the proximity-ligation association (PLA) assay with antibodies we validated in heterologous cells by Western blot. […] The validated Kir2 antibodies were paired with SUMO1 antibodies that we have tested and utilized before. Under control conditions, interactions were observed between Kir2.1 and SUMO1, but not between Kir2.2 or Kir2.3 and SUMO1. […] Although cardiomyocytes are typically cultured at 21% O2, the O2-level in the myocardium is estimated to be in the range of 5-10% O2, under physiological conditions.
Hypoxic-inhibition of IK1/Kir2.1 is reduced by diC8-PIP2 in a concentration-dependent manner. We have shown that adding the exogenous, soluble PIP2 analog diC8-PIP2 into the patch-pipette opposes hypoxic-inhibition of IK1 (FIG. 4). […] As before, the effects of hypoxia were ameliorated by SENP1 (2 μM) and were not observed in the SUMO and hypoxia insensitive Kir2.1-K49Q channels (FIG. 4D).
Background: In patch-clamp work, channel activity is measured electrically.

Results on 3 molecules are retold here after patent US20240358731A1, “SUMO PATHWAY AS AN OXYGEN SENSOR RELEVANT TO THE PATHOPHYSIOLOGY OF PULMONARY ARTERY HYPERTENSION AND CARDIAC ARRHYTHMIA” (Northeastern University, priority 2023, published 2024).

As to “SUMO1: purified SUMO1 (small ubiquitin-related modifier) protein introduced via the recording pipette or co-expressed”, the “effect on hypoxic inhibition of IK1” value is recorded as “hypoxia-sensitive component of the current was abolished”. For the same molecule, the “decrease in IK1” value (SUMO1 1 μM in recording pipette) was found to be 48±8%.

Consider `Cc1sc(C(=O)c2cncnc2N[C@@H]2C[C@H](COS(N)(=O)=O)[C@@H](O)C2)cc1[C@@H]1NCCc2ccc(Cl)cc21` [TAK981, Subasumstat], for which the “effect on hypoxic inhibition of IK1” value is reported as “precludes hypoxic inhibition of Kir2 currents”.

B1: SENP1: purified deSUMOylating enzyme (SUMO specific protease) introduced via the recording pipette or expressed (protein, UniProt Q9P0U3 1-644, looked up)
Sentrin-specific protease 1: MDDIADRMRMDAGEVTLVNHNSVFKTHLLPQTGFPEDQLSLSDQQILSSRQGHLDRSFTCSTRSAAYNPSYYSDNPSSDSFLGSGDLRTFGQSANGQWRNSTPSSSSSLQKSRNSRSLYLETRKTSSGLSNSFAGKSNHHCHVSAYEKSFPIKPVPSPSWSGSCRRSLLSPKKTQRRHVSTAEETVQEEEREIYRQLLQMVTGKQFTIAKPTTHFPLHLSRCLSSSKNTLKDSLFKNGNSCASQIIGSDTSSSGSASILTNQEQLSHSVYSLSSYTPDVAFGSKDSGTLHHPHHHHSVPHQPDNLAASNTQSEGSDSVILLKVKDSQTPTPSSTFFQAELWIKELTSVYDSRARERLRQIEEQKALALQLQNQRLQEREHSVHDSVELHLRVPLEKEIPVTVVQETQKKGHKLTDSEDEFPEITEEMEKEIKNVFRNGNQDEVLSEAFRLTITRKDIQTLNHLNWLNDEIINFYMNMLMERSKEKGLPSVHAFNTFFFTKLKTAGYQAVKRWTKKVDVFSVDILLVPIHLGVHWCLAVVDFRKKNITYYDSMGGINNEACRILLQYLKQESIDKKRKEFDTNGWQLFSKKSQEIPQQMNGSDCGMFACKYADCITKDRPINFTQQHMPYFRKRMVWEILHRKLL
Turning to B1, the “effect on hypoxic inhibition of IK1” value is on record as “insensitive to hypoxia”. Also, the “increase in IK1” value (purified SENP1 2 μM via recording pipette, mean±S.D.) stood at 17.6±6.5%.
